Target: purified Drosophila E2F1 (in vitro binding assay) (Drosophila, UniProt Q27368 1-805)
Experiment: in vitro binding assay

purified Drosophila E2F1 (in vitro binding assay), sequence (Q27368 whole entry): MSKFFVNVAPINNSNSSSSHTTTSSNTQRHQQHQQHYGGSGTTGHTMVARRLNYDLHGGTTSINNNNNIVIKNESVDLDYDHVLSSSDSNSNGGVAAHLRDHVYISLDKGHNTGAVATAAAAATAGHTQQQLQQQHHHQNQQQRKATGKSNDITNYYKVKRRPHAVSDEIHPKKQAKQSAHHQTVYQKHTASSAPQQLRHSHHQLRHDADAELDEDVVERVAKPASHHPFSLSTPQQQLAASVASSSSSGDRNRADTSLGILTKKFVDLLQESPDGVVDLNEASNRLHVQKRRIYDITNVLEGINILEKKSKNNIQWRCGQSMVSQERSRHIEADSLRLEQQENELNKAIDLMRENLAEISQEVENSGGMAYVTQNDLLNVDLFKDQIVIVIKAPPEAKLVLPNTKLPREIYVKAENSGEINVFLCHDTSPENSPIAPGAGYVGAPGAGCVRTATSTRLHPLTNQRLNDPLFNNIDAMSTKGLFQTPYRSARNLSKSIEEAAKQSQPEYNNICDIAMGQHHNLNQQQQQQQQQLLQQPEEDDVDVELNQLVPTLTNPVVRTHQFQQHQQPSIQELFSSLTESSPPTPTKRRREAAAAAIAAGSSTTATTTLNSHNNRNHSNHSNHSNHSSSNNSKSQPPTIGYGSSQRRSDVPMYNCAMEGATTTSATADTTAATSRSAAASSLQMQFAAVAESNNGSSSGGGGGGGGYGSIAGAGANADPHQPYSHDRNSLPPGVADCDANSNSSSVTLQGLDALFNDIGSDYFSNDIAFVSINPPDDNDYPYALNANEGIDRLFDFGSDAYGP

B1: purified Drosophila Sd (in vitro binding assay) (natural protein)
chain: MKNITSSSTCSTGLLQLQNNLSCSELEVAEKTEQQAVGPGTIPSPWTPVNAGPPGALGSADTNGSMVDSKNLDVGDMSDDEKDLSSADAEGVWSPDIEQSFQEALSIYPPCGRRKIILSDEGKMYGRNELIARYIKLRTGKTRTRKQVSSHIQVLARRKLREIQAKIKVQFWQPGLQPSTSQDFYDYSIKPFPQPPYPAGKTSTAVSGDETGIPPSQLPWEGRAIATHKFRLLEFTAFMEIQRDEIYHRHLFVQLGGKPSFSDPLLETVDIRQIFDKFPEKSGGLKDLYEKGPQNAFYLVKCWADLNTDLTTGSETGDFYGVTSQYESNENVVLVCSTIVCSFGKQVVEKVESEYSRLENNRYVYRIQRSPMCEYMINFIQKLKNLPERYMMNSVLENFTILQVMRARETQETLLCIAYVFEVAAQNSGTTHHIYRLIKE
B1: binds.

Source: paper PMC5722641 (Developmental Cell, 2017)
